This note sets out measurements from patent publication US20240132859A1, “MODIFIED DEHALOGENASE WITH EXTENDED SURFACE LOOP REGIONS” (Promega Corporation, priority 2022, published 2024).

Where a chain is given by its changes, count along the chain named. Names and notes keep the numbering of the source.

Data set [1] has as its system HeLa cells expressing HiBiT-tagged GAPDH. As to the kind of experiment: Complementation-based chimeras transfected into genome edited HeLa cells expressing HiBiT-tagged GAPDH: expression, brightness, BRET. It counts as cell-based. On the procedure: FIG. 23 A-G. Characterization of transiently expressed complementation-based chimeras incorporating flexible linkers and LgBiT+4 circularly permuted at two alternative sites (i.e., 67/68 or 49/50). Constructs encoding the chimeras were transfected into genome edited HeLa cells expressing HiBiT-tagged GAPDH. Cells were evaluated for expression, brightness, and efficiency of intramolecular BRET to a bound TMR ligand. (A) Structure of the HALOTAG-cpLGBIT chimeras. (B) Expression levels. Lysates from cells labeled with 1 μM HaloTag-TMR ligand were resolved on SDS-PAGE and scanned on a fluorescent imager. Expression levels quantitated using Image J software were normalized to the expression of HaloTag178-cpLgBIT+4 67/68-179. (C) Total luminescence from cells treated with 20 μM fluorofurimazine. (D) Intramolecular BRET efficiencies for cells treated with 500 nM HaloTag-TMR ligand.

Data set [2] in a line: Intramolecular BRET efficiency of purified fusions and chimeras to a bound TMR ligand. It counts as biochemical. Particulars: 6 nM chimeras complemented with 60 nM VS-HiBiT; compared with HT-178(L1-3)cpLgBiT+4 67/68-179. The text has this:
(§1) FIG. 9A-D. Characteristics of HaloTag-NLuc fusions and chimeras generated by insertion of circularly-permuted NanoLuc (cpNLuc), circularly-permuted thermostable NanoLuc (cptsNLuc), and circularly-permuted thermostable NanoLuc with a point mutation, F164C (cptsNLuc(F164C)) into loops 165 and 180. Fusion and chimeras were expressed in E. coli, purified, and compared for binding kinetics of a chloroalkane-TMR ligand, brightness of luminescence, and efficiency of intramolecular BRET to a bound TMR ligand. (A) Chimera structures (B) Binding kinetics of 2.5 nM chloroalkane-TMR to 20 nM fusions, and chimeras monitored via fluorescent polarization (C) Total luminescence for 6 nM fusions, and chimeras treated with 20 μM fluorofurimazine (D) Intramolecular BRET efficiencies for 6 nM fusions, and chimeras that were labeled with 5-fold molar excess of chloroalkane-TMR and treated with 20 μM fluorofurimazine.
(§2) FIG. 13A-B. Luminescence and BRET efficiencies of HaloTag-LgBiT fusions, and chimeras generated by insertion of LgBiT and circularly-permuted LgBiT (cpLgBiT) into loop 180. […]
(§3) FIG. 19 A-E. Biochemical characterization of chimeras generated by inserting a circularly permuted NanoLuc to HaloTag's loops 180 and 194/195. […] (C) Binding kinetics of 2.5 nM HaloTag-TMR ligand to 20 nM chimeras monitored via fluorescent polarization. […]

A short description of data set [3]: Total luminescence (brightness) of purified fusions and chimeras treated with fluorofurimazine. It counts as biochemical. Particulars: 6 nM chimeras complemented with 60 nM VS-HiBiT; compared with HT-178(L1-3)cpLgBiT+4 67/68-179.
Text: as §1, §2, §3

Data set [4] relates to VS-HiBiT peptide. As to the kind of experiment: Binding affinity of complementation-based chimeras to VS-HiBiT peptide. Conditions: compared with HT-178(L1-3)cpLgBiT+4 67/68-179. On the procedure: FIG. 22 A-I. Biochemical characterization of complementation-based chimeras incorporating flexible linkers and LgBiT+4 circularly permuted at two alternative sites (i.e., 67/68 or 49/50). (A) Structure of the HALOTAG-cpLGBIT chimeras. (B-C) Influence of flexible linkers on binding kinetics of 2.5 nM HaloTag-TMR ligand to 20 nM chimeras, which were complemented with 200 nM VS-HiBiT. (C-D) Influence of flexible linkers on binding affinity to a VS-HiBiT peptide. (E-F) Total luminescence for 6 nM chimeras complemented with 60 nM VS-HiBiT and treated with 20 μM fluorofurimazine. (G-I) Intramolecular BRET efficiencies for 6 nM chimeras complemented with 60 nM VS-HiBiT and covalently labeled with HaloTag-TMR ligand.
FIG. 25 A-E. Influence of additional LgTrip mutations on biochemical properties of the lead complementation-based chimera HaloTag178(L1-3)-cpLgBiT+4-179. Annotations of the additional mutations are based on a full length non disrupted NanoLuc protein (A) Structure of the HALOTAG-cpLGBIT chimeras (B) Influence of mutations on binding affinities to the VS-HiBiT peptide. (C) Influence of mutations on brightness and efficiency of intramolecular BRET to a bound TMR ligand for 6 nM chimeras complemented with 60 nM VS-HiBiT. (D-E) Binding kinetics of 2.5 nM HaloTag-TMR ligand to 20 nM or 80 nM chimeras, which were complemented with 200 nM or 800 nM VS-HiBiT, respectively.
FIG. 26 A-C. […]

[5] abbreviates: mammalian cells, among the tested HALOTAG-cpLGBIT chimeras.

B1: HaloTag-178-(L1-3)cpLgBiT+4 67/68 (E4D, Q42M, M106K, T144D)-179: SEQ ID NO: 93 (protein)
chain: GSEIGTGFPFDPHYVEVLGERMHYVDVGPRDGTPVLFLHGNPTSSYVWRNIIPHVAPTHRCIAPDLIGMGKSDKPDLGYFFDDHVRFMDAFIEALGLEEVVLVIHDWGSALGFHWAKRNPERVKGIAFMEFIRPIPTWDEWPEFARETFQAFRTTDVGRKLIIDQNVFIEGTLPMGVVGGSSADQMAQIEEVFKVVYPVDDHHFKVILPYGTLVIDGVTPNKLNYFGRPYEGIAVFDGKKITVTGTLWNGNKIIDERLIDPDGSMLFRVTINSGGTGGSGGTGGSMVFTLDDFVGDWEQTAAYNLDQVLEQGGVSSLLQNLAVSVTPIMRIVRSGENALKIDIHVIIPYEGLRPLTEVEMDHYREPFLNPVDREPLWRFPNELPIAGEPANIVALVEEYMDWLHQSPVPKLLFWGTPGVLIPPAEAARLAKSLPNCKAVDIGPGLNLLQEDNPDLIGSEIARWLSTLEISG
B1: the expression entry in data set [1] (genome-edited HeLa cells expressing HiBiT-tagged-GAPDH) is on record as “highest”. In data set [1] (setting [5]), the BRET efficiency entry was “highest” and the brightness result was “highest”.

B2: HaloTag-178-(L1-3)cpLgBiT+4 67/68 (E4D, Q42M, M106K, T144D, R112H, V127T, K123E)- 179: SEQ ID NO: 106 (protein)
chain: B1 chain with R228H, K239E, V243T
For the molecule B2, the BRET efficiency entry in data set [2] is reported as “similar”. Besides, the brightness result in data set [3] is on record as “similar”. Also, the “binding affinity to VS-HiBiT” value in data set [4] is given as “significantly higher affinity”.
